This assay concerns the target Orc2-GFP (Drosophila (endogenous in salivary glands)) (UniProt Q24168). Kind of assay: FRET or BRET; acceptor photobleaching (543 nm laser) of Rbf1N-RFP (mCherry) with Orc2-GFP (EGFP) as donor, in chromatin-washed, formaldehyde-fixed salivary gland nuclei; ratio of bleached to non-bleached areas in three nuclei.
Chain of UniProt Q24168 (Q24168 whole entry): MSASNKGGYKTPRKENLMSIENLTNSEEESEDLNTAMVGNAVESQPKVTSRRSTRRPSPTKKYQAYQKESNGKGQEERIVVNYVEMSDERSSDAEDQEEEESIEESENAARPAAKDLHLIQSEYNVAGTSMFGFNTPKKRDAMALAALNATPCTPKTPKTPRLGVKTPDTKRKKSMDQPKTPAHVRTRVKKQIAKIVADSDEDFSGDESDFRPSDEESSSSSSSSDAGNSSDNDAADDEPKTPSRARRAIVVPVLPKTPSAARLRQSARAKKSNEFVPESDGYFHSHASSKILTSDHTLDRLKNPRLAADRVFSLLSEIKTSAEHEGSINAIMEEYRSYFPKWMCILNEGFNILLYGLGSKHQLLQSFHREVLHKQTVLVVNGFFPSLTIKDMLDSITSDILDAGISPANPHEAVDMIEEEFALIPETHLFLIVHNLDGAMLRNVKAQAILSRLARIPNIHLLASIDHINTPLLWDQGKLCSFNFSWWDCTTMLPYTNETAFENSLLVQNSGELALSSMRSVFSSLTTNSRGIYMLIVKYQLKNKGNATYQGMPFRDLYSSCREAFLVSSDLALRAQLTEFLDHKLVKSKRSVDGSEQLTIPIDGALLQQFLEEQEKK

Take “Rbf1N-RFP (Rbf1 amino acids 1–345 with C-terminal V5 and mCherry, Lys241Glu) (domain or fragment)”: the fold increase of GFP fluorescence after RFP photobleaching was 1.5 to 2 fold.

Values taken from paper PMC2475671.
